# From paper PMC10611751 (2023)
# B1: E-cadherin residues 755-770 (site-1) [mouse] / Ankyrin-G 24 ANK repeats (residues 38-855) [not stated] (parent complex)
# chain 1: YYYDEEGGGEEDQDFD
# chain 2: KSDANASYLRAARAGHLEKALDYIKNGVDVNICNQNGLNALHLASKEGHVEVVSELLQREANVDAATKKGNTALHIASLAGQAEVVKVLVTNGANVNAQSQNGFTPLYMAAQENHLEVVRFLLDNGASQSLATEDGFTPLAVALQQGHDQVVSLLLENDTKGKVRLPALHIAARKDDTKAAALLLQNDTNADIESKMVVNRATESGFTPLHIAAHYGNINVATLLLNRAAAVDFTARNDITPLHVASKRGNANMVKLLLDRGAKIDAKTRDGLTPLHCGARSGHEQVVEMLLDRAAPILSKTKNGLSPLHMATQGDHLNCVQLLLQHNVPVDDVTNDYLTALHVAAHCGHYKVAKVLLDKKANPNAKALNGFTPLHIACKKNRIRVMELLLKHGASIQAVTESGLTPIHVAAFMGHVNIVSQLMHHGASPNTTNVRGETALHMAARSGQAEVVRYLVQDGAQVEAKAKDDQTPLHISARLGKADIVQQLLQQGASPNAATTSGYTPLHLSAREGHEDVAAFLLDHGASLSITTKKGFTPLHVAAKYGKLEVASLLLQKSASPDAAGKSGLTPLHVAAHYDNQKVALLLLDQGASPHAAAKNGYTPLHIAAKKNQMDIATSLLEYGADANAVTRQGIASVHLAAQEGHVDMVSLLLSRNANVNLSNKSGLTPLHLAAQEDRVNVAEVLVNQGAHVDAQTKMGYTPLHVGCHYGNIKIVNFLLQHSAKVNAKTKNGYTPLHQAAQQGHTHIINVLLQNNASPNELTVNGNTALAIARRLGYISVVDTLKVVTEEIMTTTTITEKHKMNVPETMNEVLDMS
# B2: E-cadherin residues 854-869 (site-3) [mouse] / Ankyrin-G 24 ANK repeats (residues 38-855) [not stated] (parent complex)
# chain 1: ESDQDQDYDYLNEWGN
# chain 2: B1 chain 2
# B3: E-cadherin residues 828-842 (site-2) [mouse] / Ankyrin-G 24 ANK repeats (residues 38-855) [not stated] (parent complex)
# chain 1: PYDSLLVFDYEGSGS
# chain 2: B1 chain 2
# Variants of: B1
# Assay: ITC; parent: 900 nM
row,Kd [µM],Variant
1,5,chain 1 Y1A
2,2.2,chain 1 Y2A
3,2.2,chain 1 Y3A
4,4.1,"chain 1 Y1A, chain 1 Y3A"
5,7.1,"chain 1 Y2A, chain 1 Y3A"
6,4.2,"chain 1 Y1A, chain 1 Y2A"

# Variants of: B2
# Assay: ITC; parent: 1.8e+03 nM
row,Variant,Kd [µM]
1,chain 1 Y10A,3.9
2,chain 1 Y8A,3.2

# Second part, the variant after the results:
row,Kd [µM],Variant
1,3.9,chain 1 W14A
2,5.8,"chain 1 Y8A, chain 1 Y10A"

# Variants of: B3
# Assay: ITC; parent: 1.9e+03 nM
row,Kd [µM],Variant
1,9.5,chain 1 Y10A
2,1.7,chain 1 Y2A
